Legend:
mTMEM16A (mouse) = mTMEM16A (mouse) (UniProt Q8BHY3); assay: cell-based or functional assay
TMEM16A-GFP (mouse) = TMEM16A-GFP (mouse) (UniProt Q8BHY3); assay: SiMPull, GFP photobleaching step count (stoichiometry)

Sequence of mTMEM16A (mouse) (Q8BHY3 whole entry): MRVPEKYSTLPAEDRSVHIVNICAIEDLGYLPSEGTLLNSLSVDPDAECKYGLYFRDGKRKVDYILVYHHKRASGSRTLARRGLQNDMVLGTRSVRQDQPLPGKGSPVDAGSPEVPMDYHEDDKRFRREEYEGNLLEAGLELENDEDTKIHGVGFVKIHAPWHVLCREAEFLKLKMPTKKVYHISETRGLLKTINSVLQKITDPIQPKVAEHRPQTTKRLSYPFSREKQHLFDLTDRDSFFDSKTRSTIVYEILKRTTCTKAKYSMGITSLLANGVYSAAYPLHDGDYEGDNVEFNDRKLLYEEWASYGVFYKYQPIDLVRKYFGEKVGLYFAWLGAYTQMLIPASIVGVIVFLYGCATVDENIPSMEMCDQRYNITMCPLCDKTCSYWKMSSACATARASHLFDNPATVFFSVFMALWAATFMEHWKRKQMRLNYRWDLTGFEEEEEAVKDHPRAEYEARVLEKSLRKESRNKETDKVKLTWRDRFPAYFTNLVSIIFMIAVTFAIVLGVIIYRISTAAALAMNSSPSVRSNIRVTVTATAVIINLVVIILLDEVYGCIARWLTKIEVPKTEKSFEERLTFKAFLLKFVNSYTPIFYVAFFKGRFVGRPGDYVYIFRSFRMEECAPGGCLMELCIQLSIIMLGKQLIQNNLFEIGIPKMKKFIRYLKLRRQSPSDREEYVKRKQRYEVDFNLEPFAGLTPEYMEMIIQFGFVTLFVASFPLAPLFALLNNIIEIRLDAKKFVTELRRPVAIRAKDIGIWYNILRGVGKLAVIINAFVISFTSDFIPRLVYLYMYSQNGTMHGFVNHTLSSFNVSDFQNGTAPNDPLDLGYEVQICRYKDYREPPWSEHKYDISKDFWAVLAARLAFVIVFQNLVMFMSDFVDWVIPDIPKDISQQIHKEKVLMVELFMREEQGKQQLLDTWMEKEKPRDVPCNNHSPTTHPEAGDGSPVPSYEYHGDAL

KCNE1ΔCt (from UniProt P15382 1-66)
current density at +100 mV, HEK293T co-expressing TMEM16A and KCNE1ΔCt (mTMEM16A (mouse)): 25 pA/pF

hKCNE1 (from UniProt P15382 1-129)
current density at +100 mV with 1 mM BAPTA, HEK293T, TMEM16A co-expressed with KCNE1 (against TMEM16A alone) (mTMEM16A (mouse)): 22 pA/pF
current density at +100 mV, whole-cell patch clamp, HEK293T co-expressing both proteins (mTMEM16A (mouse)): 18.1 pA/pF

KCNE1ΔNt (from UniProt P15382 43-129)
current density at +100 mV, HEK293T co-expressing TMEM16A and KCNE1ΔNt (mTMEM16A (mouse)): 6.56 pA/pF

KCNE1ΔNt16 (from UniProt P15382 16-129)
current density at +100 mV, HEK293T co-expressing TMEM16A and KCNE1ΔNt16 (mTMEM16A (mouse)): 25.4 pA/pF

KCNE1S38G (from UniProt P15382 1-129)
current density at +100 mV, HEK293T co-expressing TMEM16A and KCNE1 S38G (mTMEM16A (mouse)): 6.96 pA/pF

HA-KCNE1 (from UniProt P15382 1-129)
share of pulled-down spots with one-step photobleaching of TMEM16A-GFP (TMEM16A-GFP (mouse)): 20%
share of pulled-down spots with three-step photobleaching of TMEM16A-GFP (TMEM16A-GFP (mouse)): 10%
share of pulled-down spots with two-step photobleaching of TMEM16A-GFP (TMEM16A-GFP (mouse)): 70%

KCNE1ΔNt30 (from UniProt P15382 30-129)
current density at +100 mV, HEK293T co-expressing TMEM16A and KCNE1ΔNt30 (mTMEM16A (mouse)): 25.2 pA/pF

KCNE1 T7I (from UniProt P15382 1-129)
current density at +100 mV, HEK293T co-expressing TMEM16A and KCNE1 T7I (mTMEM16A (mouse)): 24.7 pA/pF

Reference: US20230242610A1
